Measurements published in patent publication US20250340631A1 (HARBOUR BIOMED SHANGHAI, published 2025).

Key:
human CLDN2 = target: T1, human CLDN2 (human, UniProt P57739 1-230); test: FACS on HEK293 cells transiently expressing human CLDN2
T1 construct: whole, on cells; also called hCLDN2
T1 sequence (looked up): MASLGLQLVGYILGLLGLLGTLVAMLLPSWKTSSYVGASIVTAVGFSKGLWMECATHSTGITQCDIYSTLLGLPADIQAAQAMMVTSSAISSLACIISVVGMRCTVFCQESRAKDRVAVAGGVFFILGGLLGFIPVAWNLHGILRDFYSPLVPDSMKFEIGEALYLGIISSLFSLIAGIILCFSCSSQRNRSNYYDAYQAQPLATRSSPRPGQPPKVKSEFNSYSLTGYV
Protocol: Antibodies were assayed for binding affinity to human CLDN18.2 paralogous proteins by FACS (ACEA NovoCyte). CLDN1, CLDN2, CLDN3, CLDN4, CLDN6 and CLDN9 genes of the human CLDN18.2 paralogous family were transiently transfected into HEK293 cells. […] The cell density was adjusted to 10⁶ cells/mL, and 50 μL of the cell suspension was added to each well of a 96-well plate. An antibody was diluted to 60 nM with FACS buffer, and 50 μL of the antibody dilution was added to each well of the 96-well plate. After 2 h of incubation at 4° C., the plate was washed twice with FACS buffer. Then, an FACS buffer containing a secondary antibody was added. After 1 h of incubation at 4° C., the plate was washed twice with FACS buffer. The cells were resuspended in fixative solution, and run FACS.

[1] = target: T2, human CD3 on Jurkat cells (human, UniProt P07766 23-207); test: FACS on Jurkat cells
T2 construct: whole, on cells; on cells it stands in the whole CD3/TCR complex; also called CD3-expressing cells
Protocol: (§1) Antibodies were assayed for binding affinity by FACS. Test cells include HEK293/hCLDN18.2, HEK293/hCLDN18.1, NUGC4_D8 and Jurkat cells. […] The cell density was adjusted to 10⁶ cells/mL, and 50 μL of the cell suspension was added to each well of a 96-well plate. Antibodies were diluted to different concentrations with FACS buffer, and 50 μL of the antibody dilution was added to each well of the 96-well plate. After 2 h of incubation at 4° C., the plate was washed twice with FACS buffer. […] After 1 h of incubation at 4° C., the plate was washed twice with FACS buffer. The cells were resuspended in fixative solution, and then the fluorescence of the cells was monitored using an FACS instrument (ACEA NovoCyte).

human CLDN18.2 [2] = target: T3, human CLDN18.2 (human); test: FACS on NUGC4_D8 cells
T3 construct: the HEK293 line was made with a GenScript plasmid; also called hCLDN18.2

human CLDN18.2 [3] = target: T3, human CLDN18.2; test: cell-based or functional assay
Human CD16a(F) = Human CD16a(F) (human, UniProt P08637 17-208); test: BLI (Octet), antibody on FAB2G sensor
Protocol: (§2) The binding kinetics between proteins and antibodies was analyzed by the Biolayer Interferometry (BLI) technique using an Octet Red 96e (Fortebio) system. The rotation speed was set at 1000 rpm for the system. […] After equilibrated in the buffer for 120 s, the FAB2G sensor was allowed to bind to 2-fold serially diluted human Fc receptor protein. Finally, the FAB2G sensor was immersed in a 10 mM glycine-hydrochloric acid solution at pH 1.5 for regeneration to elute the proteins bound to the sensor. The affinity assays of antibodies for FcRn were performed under the conditions of both pH 6.0 buffer and pH 7.4 buffer. […] For the interactions of fast binding and fast dissociation, the “steady state” method was selected to fit the data to obtain KD(M) values.

Human CD32a(H) = target: T4, Human CD32a(H) (human, UniProt P12318 36-218, limits assumed); test: BLI (Octet), antibody on FAB2G sensor
T4 sequence (looked up): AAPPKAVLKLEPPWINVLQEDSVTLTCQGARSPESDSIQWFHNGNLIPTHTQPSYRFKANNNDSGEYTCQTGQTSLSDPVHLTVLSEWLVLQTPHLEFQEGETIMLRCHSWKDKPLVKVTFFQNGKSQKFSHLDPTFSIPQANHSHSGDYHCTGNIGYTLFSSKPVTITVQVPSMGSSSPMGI
Protocol: as §2

Human CD32b = target: T5, Human CD32b (human, UniProt P31994 46-217, limits assumed); test: BLI (Octet), antibody on FAB2G sensor
T5 sequence (looked up): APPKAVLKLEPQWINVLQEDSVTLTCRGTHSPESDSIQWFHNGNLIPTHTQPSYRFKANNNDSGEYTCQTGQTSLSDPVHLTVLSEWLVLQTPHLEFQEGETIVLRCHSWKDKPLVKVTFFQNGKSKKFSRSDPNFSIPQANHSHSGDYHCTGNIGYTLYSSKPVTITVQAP
Protocol: as §2

Human CD64 = target: T6, Human CD64 (human, UniProt P12314 16-288, limits assumed); test: BLI (Octet), antibody on FAB2G sensor, 1:1 global fit
T6 construct: bought recombinant protein
Protocol: as §2

Human CD16a(V) = Human CD16a(V) (human, UniProt P08637 17-208); test: BLI (Octet), antibody on FAB2G sensor, steady state fit
Protocol: as §2

Human FcRn = Human FcRn (human, UniProt P55899 24-297; P61769 21-119); test: BLI (Octet), antibody on FAB2G sensor, pH 6.0, 1:1 global fit; pH 6.0; 400-25 nM
Protocol: as §2

[4] = target: T2, human CD3 on Jurkat cells; test: FACS on Jurkat cells (CD3)
Protocol: as §1

T6 sequence (P12314 16-288 limits assumed): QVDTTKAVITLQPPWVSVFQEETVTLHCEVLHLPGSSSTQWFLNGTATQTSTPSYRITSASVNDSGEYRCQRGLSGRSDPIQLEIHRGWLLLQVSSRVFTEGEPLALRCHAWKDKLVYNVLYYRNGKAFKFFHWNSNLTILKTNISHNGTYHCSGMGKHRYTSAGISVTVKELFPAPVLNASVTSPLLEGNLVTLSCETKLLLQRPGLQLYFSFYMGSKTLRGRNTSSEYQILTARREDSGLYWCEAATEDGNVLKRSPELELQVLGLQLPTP
Human FcRn, sequence (P55899 24-297 limits assumed, chain 1 of 2): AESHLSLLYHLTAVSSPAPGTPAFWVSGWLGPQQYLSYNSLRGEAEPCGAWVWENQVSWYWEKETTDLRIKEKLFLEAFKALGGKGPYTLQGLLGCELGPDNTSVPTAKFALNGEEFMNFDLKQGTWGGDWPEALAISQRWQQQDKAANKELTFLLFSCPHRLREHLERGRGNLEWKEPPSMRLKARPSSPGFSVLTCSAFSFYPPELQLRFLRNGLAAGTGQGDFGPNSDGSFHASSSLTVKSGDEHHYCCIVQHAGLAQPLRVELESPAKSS
Human FcRn, sequence (P61769 21-119 limits assumed, chain 2 of 2): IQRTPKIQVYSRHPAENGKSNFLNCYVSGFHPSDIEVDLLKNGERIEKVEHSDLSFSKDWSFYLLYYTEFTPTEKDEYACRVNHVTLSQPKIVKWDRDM
T2 sequence (P07766 23-207): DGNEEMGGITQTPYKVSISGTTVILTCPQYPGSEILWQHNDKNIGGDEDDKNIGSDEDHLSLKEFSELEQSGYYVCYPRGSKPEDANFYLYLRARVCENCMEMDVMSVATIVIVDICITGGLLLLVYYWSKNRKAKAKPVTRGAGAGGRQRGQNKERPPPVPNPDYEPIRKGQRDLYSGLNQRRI
Human CD16a(V), sequence (P08637 17-208 F176V limits assumed): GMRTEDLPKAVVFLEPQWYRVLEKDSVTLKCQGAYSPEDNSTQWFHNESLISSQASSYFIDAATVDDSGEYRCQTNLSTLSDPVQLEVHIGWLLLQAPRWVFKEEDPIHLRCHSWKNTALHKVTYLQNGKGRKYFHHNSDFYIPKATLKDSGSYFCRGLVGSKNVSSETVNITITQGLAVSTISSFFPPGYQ
Human CD16a(F), sequence (P08637 17-208 limits assumed): as the sequence (P08637 17-208 F176V limits assumed) above, with V160F counted along it

B1: Positive Control (hCLDN2 row) (antibody, human IgG1, kappa, V domains shown)
VH: VKLLQSGAALVPKPGDSMKMSCKASGYTFTHDIIHWVRQSHGKSLEWIGYINPYNGGTNYNEKFKTKATMTVDKPSSTAYLELTRVSSEASAIYYCATGSFDYWGQGVMVTVSS
VL: DVVLTQTPGSLSLAIGQSASISCKSSQSLLGTSGKTFLNWILQRPGQSPERLIYQVSKLYSEVPDRFSGSGSETEFTLKISRVEAEDLGVYYCWQGIHFPHTFGAGTKLELKR
notes: The sheet prints only 'Positive Control'; also called PR005080; Human Claudin-2 Antibody (PR005080)
- binding result (human CLDN2): binds

B2: PR006023 (bispecific antibody, human IgG1, lambda, L234A L235A)
chain: EVQLVESGGGLVQPGGSLRLSCAASGFTFSSYWMHWVRQVPGKGLVWVSRISSTGSRTIYADSVKGRFTISRDNAKNTLYLQMNSLRAEDTAVYYCARGEDHDILTGYPIRGQGTTVTVSSGGGGSGGGGSGGGGSEVQLVESGGGLVQPGGSLRLSCAASGFTFSSYWMHWVRQVPGKGLVWVSRISSTGSRTIYADSVKGRFTISRDNAKNTLYLQMNSLRAEDTAVYYCARGEDHDILTGYPIRGQGTTVTVSSASEPKSSDKTHTCPPCPAPEAAGGPSVFLFPPKPKDTLMISRTPEVTCVVVDVSHEDPEVKFNWYVDGVEVHNAKTKPREEQYNSTYRVVSVLTVLHQDWLNGKEYKCKVSNKALPAPIEKTISKAKGQPREPQVCTLPPSREEMTKNQVSLSCAVKGFYPSDIAVEWESNGQPENNYKTTPPVLDSDGSFFLVSKLTVDKSRWQQGNVFSCSVMHEALHNHYTQKSLSLSPGK
heavy: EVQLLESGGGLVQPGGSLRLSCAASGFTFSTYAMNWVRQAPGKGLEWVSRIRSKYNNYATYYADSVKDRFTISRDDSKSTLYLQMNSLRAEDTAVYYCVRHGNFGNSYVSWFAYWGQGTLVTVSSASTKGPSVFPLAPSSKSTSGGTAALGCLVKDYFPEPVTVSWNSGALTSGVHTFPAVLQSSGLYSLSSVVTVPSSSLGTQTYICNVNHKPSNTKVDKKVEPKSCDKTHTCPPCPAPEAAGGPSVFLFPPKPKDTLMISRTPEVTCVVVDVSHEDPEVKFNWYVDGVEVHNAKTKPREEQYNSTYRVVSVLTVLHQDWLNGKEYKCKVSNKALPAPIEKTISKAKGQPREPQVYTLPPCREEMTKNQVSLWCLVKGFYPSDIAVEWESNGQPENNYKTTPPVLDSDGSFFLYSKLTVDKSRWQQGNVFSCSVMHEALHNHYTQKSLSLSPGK
light: QAVVTQEPSLTVSPGGTVTLTCRSSTGAVTTSNYANWVQQKPGQAPRGLIGGTNKRAPWTPARFSGSLLGDKAALTLLGAQPEDEAEYFCALWYSNLWVFGGGTKLTVLGQPKAAPSVTLFPPSSEELQANKATLVCLISDFYPGAVTVAWKADSSPVKAGVETTTPSKQSNNKYAASSYLSLTPEQWKSHRSYSCQVTHEGSTVEKTVAPTECS
notes: structure 1; CD3 Fab from PR001848, CLDN18.2 VH from PR007246; LALA
- EC50 [1]: 40.6 nM
- EC50 (human CLDN18.2 [2]): 31.3 nM
- TDCC, Titer EC50 (pM), NUGC4_D8 (human CLDN18.2 [3]): 48.5 pM
- binding result (Human CD16a(F)): no binding (tested: 10000-625 nM)
- binding result (Human CD32a(H)): no binding (tested: 10000-625 nM)
- binding result (Human CD32b): no binding (tested: 10000-625 nM)
- Kd (Human CD64): 53.9 nM
- koff (Human CD64): 0.0471 s⁻¹
- kon (Human CD64): 874000 M⁻¹ s⁻¹
- Kd (Human CD16a(V)): 3000 nM
- Kd (Human FcRn): 210 nM
- koff (Human FcRn): 0.0626 s⁻¹
- kon (Human FcRn): 298000 M⁻¹ s⁻¹

B3: PR007079 (bispecific antibody, human IgG1, lambda)
chain: EVQLVESGGGLVQPGGSLRLSCAASGFTFSSYWMHWVRQVPGKGLVWVSRISSAGSRTIYADSVKGRFTISRDNAKNTLYLQMNSLRAEDTAVYYCARGEDHDILTGYPIRGQGTTVTVSSGGGGSGGGGSGGGGSEVQLVESGGGLVQPGGSLRLSCAASGFTFSSYWMHWVRQVPGKGLVWVSRISSAGSRTIYADSVKGRFTISRDNAKNTLYLQMNSLRAEDTAVYYCARGEDHDILTGYPIRGQGTTVTVSSASEPKSSDKTHTCPPCPAPEAAGAPSVFLFPPKPKDTLMISRTPEVTCVVVDVSHEDPEVKFNWYVDGVEVHNAKTKPREEQYNSTYRVVSVLTVLHQDWLNGKEYKCKVSNKALPAPIEKTISKAKGQPREPQVCTLPPSREEMTKNQVSLSCAVKGFYPSDIAVEWESNGQPENNYKTTPPVLDSDGSFFLVSKLTVDKSRWQQGNVFSCSVMHEALHNHYTQKSLSLSPGK
heavy: EVQLVESGGGLVQPGGSLKLSCAASGFTFSTYAMNWVRQASGKGLEWVGRIRSKYNNYATYYADSVKDRFTISRDDSKNTAYLQMNSLKTEDTAVYYCTRHGNFGNSYVSWFAYWGQGTLVTVSSASTKGPSVFPLAPSSKSTSGGTAALGCLVKDYFPEPVTVSWNSGALTSGVHTFPAVLQSSGLYSLSSVVTVPSSSLGTQTYICNVNHKPSNTKVDKKVEPKSCDKTHTCPPCPAPEAAGAPSVFLFPPKPKDTLMISRTPEVTCVVVDVSHEDPEVKFNWYVDGVEVHNAKTKPREEQYNSTYRVVSVLTVLHQDWLNGKEYKCKVSNKALPAPIEKTISKAKGQPREPQVYTLPPCREEMTKNQVSLWCLVKGFYPSDIAVEWESNGQPENNYKTTPPVLDSDGSFFLYSKLTVDKSRWQQGNVFSCSVMHEALHNHYTQKSLSLSPGK
light: QAVVTQEPSLTVSPGGTVTLTCRSSTGAVTTSNYANWVQQKPGQAPRGLIGGTNKRAPWTPARFSGSLLGDKAALTLLGAQPEDEAEYFCALWYSNLWVFGGGTKLTVLGQPKAAPSVTLFPPSSEELQANKATLVCLISDFYPGAVTVAWKADSSPVKAGVETTTPSKQSNNKYAASSYLSLTPEQWKSHRSYSCQVTHEGSTVEKTVAPTECS
notes: structure 1; CD3 Fab from PR003886, CLDN18.2 VH from PR007243; AAA
- EC50 (human CLDN18.2 [2]): 73.2 nM
- binding result [4]: binds

B4: PR007080 (bispecific antibody, human IgG1, lambda)
chain: EVQLVESGGGLVQPGGSLRLSCAASGFTFSSYWMHWVRQVPGKGLVWVSRIDSRGSRTIYADSVKGRFTISRDNAKNTLYLQMNSLRAEDTAVYYCARGEDHDILTGYPIRGQGTTVTVSSGGGGSGGGGSGGGGSEVQLVESGGGLVQPGGSLRLSCAASGFTFSSYWMHWVRQVPGKGLVWVSRIDSRGSRTIYADSVKGRFTISRDNAKNTLYLQMNSLRAEDTAVYYCARGEDHDILTGYPIRGQGTTVTVSSASEPKSSDKTHTCPPCPAPEAAGAPSVFLFPPKPKDTLMISRTPEVTCVVVDVSHEDPEVKFNWYVDGVEVHNAKTKPREEQYNSTYRVVSVLTVLHQDWLNGKEYKCKVSNKALPAPIEKTISKAKGQPREPQVCTLPPSREEMTKNQVSLSCAVKGFYPSDIAVEWESNGQPENNYKTTPPVLDSDGSFFLVSKLTVDKSRWQQGNVFSCSVMHEALHNHYTQKSLSLSPGK
heavy: EVQLVESGGGLVQPGGSLKLSCAASGFTFSTYAMNWVRQASGKGLEWVGRIRSKYNNYATYYADSVKDRFTISRDDSKNTAYLQMNSLKTEDTAVYYCTRHGNFGNSYVSWFAYWGQGTLVTVSSASTKGPSVFPLAPSSKSTSGGTAALGCLVKDYFPEPVTVSWNSGALTSGVHTFPAVLQSSGLYSLSSVVTVPSSSLGTQTYICNVNHKPSNTKVDKKVEPKSCDKTHTCPPCPAPEAAGAPSVFLFPPKPKDTLMISRTPEVTCVVVDVSHEDPEVKFNWYVDGVEVHNAKTKPREEQYNSTYRVVSVLTVLHQDWLNGKEYKCKVSNKALPAPIEKTISKAKGQPREPQVYTLPPCREEMTKNQVSLWCLVKGFYPSDIAVEWESNGQPENNYKTTPPVLDSDGSFFLYSKLTVDKSRWQQGNVFSCSVMHEALHNHYTQKSLSLSPGK
light: QAVVTQEPSLTVSPGGTVTLTCRSSTGAVTTSNYANWVQQKPGQAPRGLIGGTNKRAPWTPARFSGSLLGDKAALTLLGAQPEDEAEYFCALWYSNLWVFGGGTKLTVLGQPKAAPSVTLFPPSSEELQANKATLVCLISDFYPGAVTVAWKADSSPVKAGVETTTPSKQSNNKYAASSYLSLTPEQWKSHRSYSCQVTHEGSTVEKTVAPTECS
notes: structure 1; CD3 Fab from PR003886, CLDN18.2 VH from PR007244; AAA
- EC50 (human CLDN18.2 [2]): 46.7 nM
- binding result [4]: binds

B5: PR007081 (bispecific antibody, human IgG1, lambda)
chain: EVQLVESGGGLVQPGGSLRLSCAASGFTFSSYWMHWVRQVPGKGLVWVSRINFDSSRTIYADSVKGRFTISRDNAKNTLYLQMNSLRAEDTAVYYCARGEDHDILTGYPIRGQGTTVTVSSGGGGSGGGGSGGGGSEVQLVESGGGLVQPGGSLRLSCAASGFTFSSYWMHWVRQVPGKGLVWVSRINFDSSRTIYADSVKGRFTISRDNAKNTLYLQMNSLRAEDTAVYYCARGEDHDILTGYPIRGQGTTVTVSSASEPKSSDKTHTCPPCPAPEAAGAPSVFLFPPKPKDTLMISRTPEVTCVVVDVSHEDPEVKFNWYVDGVEVHNAKTKPREEQYNSTYRVVSVLTVLHQDWLNGKEYKCKVSNKALPAPIEKTISKAKGQPREPQVCTLPPSREEMTKNQVSLSCAVKGFYPSDIAVEWESNGQPENNYKTTPPVLDSDGSFFLVSKLTVDKSRWQQGNVFSCSVMHEALHNHYTQKSLSLSPGK
heavy: EVQLVESGGGLVQPGGSLKLSCAASGFTFSTYAMNWVRQASGKGLEWVGRIRSKYNNYATYYADSVKDRFTISRDDSKNTAYLQMNSLKTEDTAVYYCTRHGNFGNSYVSWFAYWGQGTLVTVSSASTKGPSVFPLAPSSKSTSGGTAALGCLVKDYFPEPVTVSWNSGALTSGVHTFPAVLQSSGLYSLSSVVTVPSSSLGTQTYICNVNHKPSNTKVDKKVEPKSCDKTHTCPPCPAPEAAGAPSVFLFPPKPKDTLMISRTPEVTCVVVDVSHEDPEVKFNWYVDGVEVHNAKTKPREEQYNSTYRVVSVLTVLHQDWLNGKEYKCKVSNKALPAPIEKTISKAKGQPREPQVYTLPPCREEMTKNQVSLWCLVKGFYPSDIAVEWESNGQPENNYKTTPPVLDSDGSFFLYSKLTVDKSRWQQGNVFSCSVMHEALHNHYTQKSLSLSPGK
light: QAVVTQEPSLTVSPGGTVTLTCRSSTGAVTTSNYANWVQQKPGQAPRGLIGGTNKRAPWTPARFSGSLLGDKAALTLLGAQPEDEAEYFCALWYSNLWVFGGGTKLTVLGQPKAAPSVTLFPPSSEELQANKATLVCLISDFYPGAVTVAWKADSSPVKAGVETTTPSKQSNNKYAASSYLSLTPEQWKSHRSYSCQVTHEGSTVEKTVAPTECS
notes: structure 1; CD3 Fab from PR003886, CLDN18.2 VH from PR007242; AAA
- EC50 (human CLDN18.2 [2]): 49.3 nM
- binding result [4]: binds
